Test: yeast display, Sf9 membrane polyspecificity reagent, FACS + sequencing; frameworks hold sequencing errors
In short: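 Synthetic nanobody libraries on Saccharomyces cerevisiae BJ5465 were galactose-induced for 36–48 hours, stained 1 hour at 4 °C with 10% biotinylated, detergent-solubilized Sf9 membrane reagent and enriched on streptavidin microbeads. FACS then separated cells into low and high (top ~1%) gates by anti-HA (expression) and streptavidin (reagent binding) fluorescence. Genes were colony-PCR amplified, MiSeq 2 × 250 sequenced and CDR-length filtered. A clone's polyreactivity label is that of its gate of origin.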

| Sequence | polyreactivity (PSR sort gate) |
| --- | --- |
| QDQLVEAGGGVVQAGGSLRLSCAASVIIIDYYAMAWYRQAPAKERELDAAITSGGSTSYADSVKGRFTISRDNAKNTVYLQMNSLKPEDTAVYYCNNEPSGYQSAYWGQGTQVTVSS | low polyreactivity |
| QVQLVESGAGLVQAGGSLRLSCAASGSIFYVYAMGWYRQAPGKERELVAAISSSAGSTYYADSVKGRFTISRDNAKNTVYLQMNSLKPEDTAVYYCAAKVRYSLRKYYYWGQGTQVTVSS | high polyreactivity |
| QVQLVESGGGLVQAGGSLRLSCAASGITFHSYAMGWYRQAPGKERELVAGISSGGSTNYADSVKGRFTISRDNAKNTVYLQMNSLKPEDTAVYYCNADTPFYEYDYWGQGTQVTVSS | low polyreactivity |
| QVQLVESGGGLVQAGGSLRLSCAASGSTFYINVMGWYIQAPGKERELVAAIRRRGGSTYYADSVKGRFTISRDNEKNTVYLQMNSLKPEDTAVYYCNAFSITFYDFNSWGQGTQVTVSS | low polyreactivity |
| QVQLVESRGGLVPAGGSLRLSCAASGITFYHYAIGWYRQAPVKERELVAAISRSGGSTSYADSVKGRLTISRDNAKITVYLEMNSLIPEDTAVYYCAARLVRESEPLGYWGQGTQVTVSS | high polyreactivity |
| QVHLVESGGGLVQAGGSLRLSCAATGSTFSNYAMGWNRQAPGKERELVASISNGGSTNYADSVKGRFTISRDNANNTVYLQMNSLKPVDTEVYFCIAESKAKYDYWGQGTQVSVSS | low polyreactivity |
| QVQLVESGGGLVQAGGSLRLSCAASGSIFAHYAMGWYRQAPGKERELVARISWSGGSTYYADSVKGRFTISRDNEKNTVYLQKNSMKPEDTAVYYCARAGRSWDTLYKYYLEHDYWGQGTQVTVSS | low polyreactivity |
| QVQLVESAGGLVQARGSLRLSCAASGRIFDVNAMGWYRQAPGKERELVAAISSGGNTKYADSVKGRFTISRDNAKNTVYLQMNSLKPEDTAVYYCNADGKAGGDSDYWGQGTQVTVSS | low polyreactivity |
| QVQLVESGGGLVQAGGSLRLSCAASGRIFYPYAMGWYRQAPGKERELVAAISFRDGSTYYADSVKGRFTISRDNAKYTVYLQLNILKPEDTAVYYCAAVGQTHPTSPLYTKYDYWGQGTQVTVSS | low polyreactivity |
| QVQLVESGGGLVQAGGSLRLSCAASGGISYRYAMGWYRQAPGKERELVAAISGRGTSTYYADSVKGRFTISRDNAKNTVYLQMNSLKTEDTAVYYCNAQVGNFGYRSGGYDYWGQGTQVTVSS | high polyreactivity |
| QVQLVESGGGLVQAGGSLRLSCAASGSIFPKYAMGWYRQAPGKERELVAAISRGGGSTYYADSVKGRFTISRDNAKYTVYLQMNSLKPEDTAVYYCAAQYYSLQWEYYYWGQGTQVTVSS | high polyreactivity |
| QVQLVESGGGLVQAGGSLRLSCAASGIIFRPYTMGWYRQAPGKERELVAAISQSGGRTYYADSVKGRFTISRDNAKNTVYLQMNSLKPEDTAVYYCNVLGSYSYYGGNDLWYYYWGQGTQVTVSS | high polyreactivity |
| QVQLVESGGGLVQAGGSLRLSCAASGIIFGRYAMGWYRQAPGKERELVAVISRSGGSTYYADSVKGRFTISRDNAKNTVYLQMNSLKPEDTAVYYCAARYTPTYNAGLDYWGQGTQVTVSS | high polyreactivity |
| QVQLVDSGGGLVQAGGSLRLSAASGSTLSGNTMGWYRQAPGKERELVAAINDSGGSTYYADSVKGRFTISRDNAKNTVYLQMNSLKPEDTAVYYCAAETGYAFDYWGQGTQVTVSS | low polyreactivity |
| QVQLVESGGGLVQAGGSLRLSCAASGRTFYYNTMGWYRQAPWKEWELVAAISWRTGSTYYADSVKGRFSISRDNAKNTVYLQMKSLKPEDTAVYYCAAVLFGYPRTIGTWYDRYYYWGQGTQVTVSS | high polyreactivity |
| QVQLVESGGGLVQAGGSLRLSCAASGSIFDIYAMGWYREAPGKERELVAAISGRGGSTYADSVKGRFTISRDNAKNTVYLQMNSLKPEDTAVYYCATERHRFGGLYYWGQGTQVTVSS | low polyreactivity |
| QVQLVESGGGLVQAGGSLRLSCAGSGYILFAYAMGWSRQAPGKERELVATITTSGGITYYADSVKGRFTISRDNAKNTVYLQMNSLKPEDTEVYYWAAAEGGGLVTYDYWGQGSQVTVSS | low polyreactivity |
| QVQLVESGGGLVQAGGSLRLSCAASGNIFPAYVMGGYRQAPGKDRELVAAITDSDGSTFYADSVKGRFTISRDNAKNTVYLQMNSLKAEDTAVYYCAAYSYRQGWGFGYWGQGTQVTVSS | low polyreactivity |
| QVQLVESGGGLVQAGGILRLSCASSGSIFVTFAMGWYRQAPGTEREFVAAINWIGGSTYYADSVKGRFTISRDNAKNTVYLQMNSLKPEDTAVYDCGKRYYRRYDYWGQGTQVTVSS | high polyreactivity |
| QVQLVESGGGLVQAGGSLRLSCAASGIIFYVNDMGWYREAPGKVRELVADISGGTSTNYADSVKGRFTISRDNAKNTVYLQMNSLKPEDTAVYYCATAFIVPFPGSDYWGQGTQVTVSS | low polyreactivity |
| QVQLVESGGGLVQAGGSLRLSCAASGGTFWYYAMGWYRQAPGKERELVASISRGGSTNYADSVKGRFTISRDNAKNTVYLLMNSLKPEDTAVYYCNAGLRVGPRRYVDYEYDYWGQGTQVTVSS | low polyreactivity |
| QVQLVESGGGLVQAGGSLRLSCAASGSTFGTNVMGWYRQAPGKERELVAAISGRGGRTYYADSVKGRFTISRDNAKNTVYLQMNSLKPEDTAVYYCAAPRYYSREYDYWGQGTQVTVSS | high polyreactivity |

| Sequence | polyreactivity (PSR sort gate) |
| --- | --- |
| QVQLVESGGGLVQAGGSLRLSCAASGSTFWYAMGWYRQAPGKERELVAAITARGGRTYYADSVKGRFTISRDNAKNTVYLQMNSLKPEDTAVYYCAAVSTGIGARYNYWGQGTQVTVSS | high polyreactivity |
| QVQLVESGGGLVQAGGSLRLSCAASGSIFPFNAMGWYRQAPGKERELVAAISVNGGTTYYADSVKGRFTISRDNAKNTVYLQMNSLKPEDTAVYYCNARRAYLYYVSYRYGYWGQGTQVTVSS | low polyreactivity |
| QVQLVESGGGLVQAGGSLRLSCAASGRIFFRNTMGWYRQAPGKERELVAAISGSGGSTYYADSVKGRFTISRDNAKNTVYLQMNSLKPEDTAVYYCAKRWLYPISYDYWGQGTQVTVSS | high polyreactivity |
| QVQLVESGGGLVQAGGSLRLSCAASGRIFQDYAMGWYRQAPGKERELVAAITWSGGRTYYADSVKGRFTISRDNAKNTVYLQMNSLKPEDTAVYYCNRLTQSRLYYGPREYYYWGQGTQVTVSS | high polyreactivity |
| QVQLVESAGGIVQAGGSLRLSCAASGSTFGVYAMGLYRQAPGKERELVASISSGDSTTYADSVKGRFTISRDNAKNTVYFQMNSLKPDVTAVYYCNAVYYTGYYWGHGTQVTVSS | low polyreactivity |
| QVQLVESGGGLVQAGGSLRLSCAASGYIFSYYAMGWNRPAPGKERELVATISSGGSTNYADSVKGRFTISRDNAKNTVYLQMNSLKPEDTAVYYCAATIGHNGFYYWGQGTLVTVSS | low polyreactivity |
| QVQLVESGGGLVQARGRLRLSFAASGSIFSTNAMGWYRQATGKERELVAAISSSDGITYYADSVKGRFTISRDNAMNTVYLQMNSLKPEDTAVYYCAAEYAYGIEESSAYNIYFYWGQGTQVTVSS | high polyreactivity |
| QVQLVESGGGLVQAGGSLRLSCAASGRIFTNYAMGWYRPAPGKEREYVAAISWSGGSTYYADSVKGRFTISRDNAKNTVYLQMNSLKPEYTAVYYCAAVGYAGLPYGLRPNNSGYWGQGTQVTVSS | low polyreactivity |
| QVQLVESGGGLVQAGGSLRLSCAASGRTFYKNTMGWYIQAPGKERELVATISQRGGSTYYADSVKGRFTISRDNAKNTVYLQMNSLKPEDTAVYYCNARKYTQSIHYDYWGQGTQVTVSS | high polyreactivity |
| QVQLVESGGGLVQAGGSLRISCDASGYIFGWNSMGWYRQAPGKERELVAAISSSGGNTYYADSVKGRFTISRDNAKNTVYLQMNSLKPEDTAVYYCARSYPYRYDYWGQGTQVTVSS | low polyreactivity |
| QVQILESGGGLVQAGGSLRLSCAASGFTFTGYALGWYSQAPGKERELVAAINARATSTYYADSVKGRFTISRDNAMNHVYLQIKSLIPEDTAVYFCAATFYRRYVDLGYWGQCTQVTVSS | high polyreactivity |
| QVQLVESGGGLVQAGGSLRLSCAASGRIYVKNAMGWYRPAPGKERELVAAINWRGTSTYYADSVKGRFTISRDNAKNTVYLQMKSLKPEDTAVYYCNRVLGYPYGVDYWGQGTQVTVSS | high polyreactivity |
| QVQLVESGVGLVQAGGSLRLSCAASGFTFTRYAMGWYRQAPGKERELVAAISWTGGSTYYADSVKGRFTISRDNAKNTVYLQMNSLKPEDTAVYYCAGRFNYQWSKFGYWGQGTQVTVSS | high polyreactivity |
| QVQLVESGGGLVQAGGSLRLSCAPSGRTFDQYAMGWYRQAPGKERELVADITWSGGTTRYADSVKGRFTISRDHAKNTVYLQMNSLKPEDTAVYYCAVEVTWGYNYWGQVTQVTVSS | low polyreactivity |
| QVQLVESGGGLVQAGGSLSLSCAASGSTFVYNAMGWYRKAPGKERELVAAISSGGSTNYADSVKGRFTISRDNAKNTVYFQMKSLKPEDNRSEYSRYVVYDYWGQGTQVTVSS | low polyreactivity |
| QVQLVESVGGLVLAGASLRLSCAASGSTYAPNAMGWYRQAPGKERELVAVITSGDSTYYAVSVKGRFTISRDNAKNTVYLQMNSLKPEDTAVYYCASETYGTPGYYYWGQGTQVTVSS | low polyreactivity |
| QVQLQESGGGVQAGGSLRLSCAASGSISAPILMGWYRQAPGKERELVAGIGGGANTYYADSVKGRFTFSRDNAKYTVYLQMYSLKPEDTAVYYCAAGDYYWTNFGYWGQGTQVTASS | high polyreactivity |
| QVQLVESGGGLVQAGGSLRISCAPSGRIFNINEMGWYRPARGKEREWVARITTGGRTNYADSVKGRFTISRDNAKNTFYLQMNSLKPADTAVYYCAARTYGQLGDYWGQGTQVTVSS | high polyreactivity |
| QVQLAESGGGLVQAGGSLRLSCAASGRTFNLYAMGWYRQAPGKERELVASISSGGSTYYADSVKGRFTISRDNAKNTVYLQMNSLIPEDTAVYYCAARLAYGPRPMPSYEYYYWGQGTQVTVSS | low polyreactivity |
| QVQLVESGGGLVQAGGSLRLSCAASGRIFYYYAMGWYRQAPGKERELVADITSGGSTNYADSVKGRFTISRDNAKNTVYLQMNSLKPEDTAVYYCAAEYGDVYVWTYDYWGQGTQVTVSS | high polyreactivity |
| QVQLVESGGGLVQAGGSLRLSCAASGFISTYYAMGWYRQAPGKERELVAAISWNGGSTYYADSVKGRFTISRDNAKNTVYLQMNSLKPEDTADYYCAAYLGKWRQFYSSDYDYWGQGTQVTVSS | low polyreactivity |

Reference: the nanobody polyreactivity screen of Harvey et al. (2022)
